The record followed here is patent US20130253037.

Data set [1] deals with 6-His-Aurora-A (recombinant, wild type, from Sf9 insect cells).

B1: 6-His-LIMK2 (recombinant, E. coli) (protein)
chain: MSALAGEDVWRCPGCGDHIAPSQIWYRTVNETWHGSCFRCSECQDSLTNWYYEKDGKLYCPKDYWGKFGEFCHGCSLLMTGPFMVAGEFKYHPECFACMSCKVIIEDGDAYALVQHATLYCGKCHNEVVLAPMFERLSTESVQEQLPYSVTLISMPATTEGRRGFSVSVESACSNYATTVQVKEVNRMHISPNNRNAIHPGDRILEINGTPVRTLRVEEVEDAISQTSQTLQLLIEHDPVSQRLDQLRLEARLAPHMQNAGHPHALSTLDTKENLEGTLRRRSLRRSNSISKSPGPSSPKEPLLFSRDISRSESLRCSSSYSQQIFRPCDLIHGEVLGKGFFGQAIKVTHKATGKVMVMKELIRCDEETQKTFLTEVKVMRSLDHPNVLKFIGVLYKDKKLNLLTEYIEGGTLKDFLRSMDPFPWQQKVRFAKGIASGMAYLHSMCIIHRDLNSHNCLIKLDKTVVVADFGLSRLIVEERKRAPMEKATTKKRTLRKNDRKKRYTVVGNPYWMAPEMLNGKSYDETVDIFSFGIVLCEIIGQVYADPDCLPRTLDFGLNVKLFWEKFVPTDCPPAFFPLAAICCRLEPESRPAFSKLEDSFEALSLYLGELGIPLPAELEELDHTVSMQYGLTRDSPP
B1: the “in vitro kinase assay, cofilin phosphorylation with [32P] ATP” value with 6-His-cofilin is reported as “LIMK2 efficiently phosphorylated cofilin as expected (lane 3)”. For the same protein, the “in vitro kinase assay, Aurora A (without TPX2) as putative LIMK2 substrate” value in data set [1] is given as “when LIMK2 was incubated with Aurora A (without TPX2), Aurora A did not get phosphorylated”.
